Experimental data: publication PMC3483115

Molecular target: TRPV1-CT44 (TRPV1 C-terminal residues 759–802) (rat) (UniProt O35433)
Test: other fluorescence titration

Chain of TRPV1-CT44 (TRPV1 C-terminal residues 759–802) (rat) (O35433 759-802): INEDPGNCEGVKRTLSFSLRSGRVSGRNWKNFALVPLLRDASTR

calmodulin (CaM), wild type (from UniProt P0DP23 1-149) (natural protein)
stoichiometry N: 1
